In PMC12510318:

What was measured:
Test in all cases: EMSA
Conditions in all cases: EMSA: 6 ng 32P-satBaMV riboprobe, 2 U RNasin, 15 ul CAPS buffer (pH and salt not given), 20 min on ice; 4-12% NuPAGE in MES buffer at 4 C
[1] = tested on: rFIB triple mutant (Nicotiana benthamiana)
[2] = tested on: rFIB (NbFIB2) WT (Nicotiana benthamiana)
[3] = tested on: rFIB K256A (Nicotiana benthamiana)
[4] = tested on: rFIB D227A (Nicotiana benthamiana)
[5] = tested on: rP20 WT (bamboo mosaic virus satellite RNA (satBaMV))
[6] = tested on: rFIB K134A (Nicotiana benthamiana)

For satBaMV riboprobe, the Kd [1] was 1230 nM, the Kd [2] was 50 nM and the Kd [3] was 350 nM. For the same substance, the Kd [4] was 350 nM, the Kd [5] was 32 nM and the Kd [6] was 140 nM.
